{
  "source": "patent US20030153066A1",
  "about": "(University of California, published 2003)",
  "target": "HIV-1 Gag Pr55 (wild-type) (HIV-1, UniProt P03348 1-512, N-terminal myristoylation (reactions with MCoA))",
  "assay": "cell-based or functional assay",
  "data": [
    {"binder": "WGHP68-Tr1 (other) MADRLTRIAIVSEDKCKPKKCRQECKKSCPVVKTGKLCIEVSPVAKLAFISEELCIGCGICVKKCPFDAIEIINLPKDLEKDTTHRYGPNTFKLHRLPVPRPGQVLGLVGTNGIGKSTALKVLAGKLKPNLGRFKNPPDWQEILTYFRGSELQNYFTRILEDNLKAIIKPQYVDHIPKAVQGNVGQVLEQKDERDMKNELCVDLELNQVIDRNVGDLSGGELQRFAIAVVAVQSAEIYMFDEPSSYLDVKQRLKAARVIRSLLRSNSYVIVVEHDLSVLDYLSDFICCLYGKPGAYGVVTLPFSVREGINIFLAGFVPTENLRFRDESLTFKIAETQESAEEVATYQRYKYPTMSKTQGNFKLSVVEGEFTDSQIVVM", "values": [
      {"measurement": "amount of HIV-1 Gag protein in the medium of co-transfected Cos-1 cells (virion production)", "value": 4.7, "unit": "fold"}
    ]}
  ]
}
